Measured values from patent US20210395344A1 (TWIST BIOSCIENCE, published 2021).
Residue numbers refer to the chain shown, from its start.

B1: 4-139 (antibody, V domains shown)
VH: EVQLVESGGGLVQPGGSLRLSCAASGGGTFGSYAMGWFRQAPGKEREFVAAISIASGASGGTTNYADSVKGRFTISADNSKNTAYLQMNSLKPEDTAVYYCATTMNPNPRWGQGTLVTVSS
B2: 4-124 (antibody, V domains shown)
VH: EVQLVESGGGLVQPGGSLRLSCAASGNIFTRNVMGWFRQAPGKEREFVAAITSSGSTNYADSVKGRFTISADNSKNTAYLQMNSLKPEDTAVYYCARPSSDLQGGVDYWGQGTLVTVSS
B3: 4-119 (antibody, V domains shown)
VH: EVQLVESGGGLVQPGGSLRLSCAASGFAFSSYAMGWFRQAPGKEREWVATINGDDYTYYADSVKGRFTISADNSKNTAYLQMNSLKPEDTAVYYCVATPGGYGLWGQGTLVTVSS
B4: 4-147 (antibody, V domains shown)
VH: EVQLVESGGGLVQPGGSLRLSCAASGGTFSVYAMGWFRQAPGKEREGVAAISMSGDDAAYADSVKGRFTISADNSKNTAYLQMNSLKPEDTAVYYCAKISKDDGGKPRGAFFDSWGQGTLVTVSS
B5: 1-23 (antibody, V domains shown)
VH: EVQLLESGGGLVQPGGSLRLSCAASGFTFSSYAISWVRQAPGKGLEWVSIISGSGGSTYYADSVKGRFTISRDNSKNTLYLQMNSLRAEDTAVYYCAREGYRDYLWYFDLWGQGTLVTVSS
VL: QSALTQPASVSGSPGQSITISCTGTSNDVGSYNLVSWYQQHPGKAPKLMIYEGNKRPSGVSNRFSGSKSGNTASLTISGLQAEDEADYYCCSYAGSYTVFGGGTKLTVL
notes: also called variant 1-23
B6: 1-24 (antibody, V domains shown)
VH: B5 VH with I34M, S35N
VL: B5 VL with N27S, S31Y, S96G, Y97S, T98V
notes: also called variant 1-24
B7: 1-17 (antibody, V domains shown)
VH: EVQLLESGGGLVQPGGSLRLSCAASGFTFSSYAMYWVRQAPGKGLEWVSAISGSAGSTYYADSVKGRFTISRDNSKNTLYLQMNSLRAEDTAVYYCARDTNDFWSGYSIFDPWGQGTLVTVSS
VL: QSALTQPASVSGSPGQSITISCTGTSSDIGSYNLVSWYQQHPGKAPKLMIYEGTKRPSGVSNRFSGSKSGNTASLTISGLQAEDEADYYCCSYAGSRTYVFGGGTKLTVL
notes: also called variant 1-17
B8: 1-42 (antibody, V domains shown)
VH: EVQLLESGGGLVQPGGSLRLSCAASGVTFSSYAMSWVRQAPGKGLEWVSAITGSGGSTYYADSVKGRFTISRDNSKNTLYLQMNSLRAEDTAVYYCAKHGSGTIFGVVIAKYYFDYWGQGTLVTVSS
VL: B7 VL with I29V, S31R, T54G, G95S, R97S, Y99L
notes: also called variant 1-42
B9: 1-12 (antibody, V domains shown)
VH: B8 VH with V27I, A50G, T52S
VL: QSALTQPASVSGSPGQSITISCTGTSSDVGHYNLVSWYQQHPGKAPKLMIYEGTKRPSGVSNRFSGSKSGNTASLTISGLQAEDEADYYCCSYAGSSSFVVFGGGTKLTVL
B10: 1-42 (antibody, V domains shown)
VH: B8 VH
VL: B7 VL with I29V, S31R, T54G, G95S, R97S, Y99L
B11: 1-2 (antibody, V domains shown)
VH: EVQLLESGGGLVQPGGSLRLSCAASGFTFSSQAMSWVRQAPGKGLEWVSAISGSGGGTYYADSVKGRFTISRDNSKNTLYLQMNSLRAEDTAVYYCAKDRRFGEFDPWGQGTLVTVSS
VL: B9 VL with D28G, H31S, T54I
B12: 1-4 (antibody, V domains shown)
VH: B11 VH
VL: B9 VL with H31T, T54S, K55Q
B13: 1-31 (antibody, V domains shown)
VH: EVQLLESGGGLVQPGGSLRLSCAASGFTFSSYAMNWVRQAPGKGLEWVSAISGSGGSTFYADSVKGRFTISRDNSKNTLYLQMNSLRAEDTAVYYCTRPPYGDYGDYWGQGTLVTVSS
VL: B9 VL with H31K, T54S, K55Q, S97R, S98T, F99P
B14: 1-28 (antibody, V domains shown)
VH: EVQLLESGGGLVQPGGSLRLSCAASGFTFSSYGMSWVRQAPGKGLEWVSAISGSGGGTYYADSVKGRFTISRDNSKNTLYLQMNSLRAEDTAVYYCASSSSWQFDYWGQGTLVTVSS
VL: B9 VL with D28G, H31S, T54S, K55Q, S98T, F99H, V100Y
B15: 1-17 (antibody, V domains shown)
VH: B7 VH
VL: B7 VL
B16: 1-29 (antibody, V domains shown)
VH: B7 VH
VL: B7 VL

The binders below were run against human ACE2 (human, UniProt Q9BYF1 18-740) (assay: not given).
human ACE2, sequence (Q9BYF1 18-740 limits assumed): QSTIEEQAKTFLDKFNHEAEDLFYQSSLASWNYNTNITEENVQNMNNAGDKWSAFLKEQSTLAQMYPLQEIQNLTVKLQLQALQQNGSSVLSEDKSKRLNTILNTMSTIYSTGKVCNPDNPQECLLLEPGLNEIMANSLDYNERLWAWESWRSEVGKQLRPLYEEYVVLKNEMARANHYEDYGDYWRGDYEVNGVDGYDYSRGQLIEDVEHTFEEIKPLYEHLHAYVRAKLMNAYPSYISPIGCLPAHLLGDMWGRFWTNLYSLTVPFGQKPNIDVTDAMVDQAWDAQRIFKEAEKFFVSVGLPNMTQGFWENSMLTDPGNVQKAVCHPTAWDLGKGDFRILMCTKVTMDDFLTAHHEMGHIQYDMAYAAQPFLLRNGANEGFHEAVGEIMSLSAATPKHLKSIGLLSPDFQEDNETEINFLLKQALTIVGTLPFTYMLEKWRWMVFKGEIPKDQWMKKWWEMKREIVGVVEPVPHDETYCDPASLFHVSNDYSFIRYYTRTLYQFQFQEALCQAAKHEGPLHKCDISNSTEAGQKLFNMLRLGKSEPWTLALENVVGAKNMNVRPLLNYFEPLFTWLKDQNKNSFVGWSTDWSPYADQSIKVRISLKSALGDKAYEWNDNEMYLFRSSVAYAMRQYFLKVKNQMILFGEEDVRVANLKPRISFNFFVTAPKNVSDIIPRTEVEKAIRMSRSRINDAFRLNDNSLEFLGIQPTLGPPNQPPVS
B1 was tested, and the IC50 was 20.2 nM.
In the case of B2, the IC50 is reported as 54.4 nM.
For B3, the IC50 was 4.37 nM.
Work on B4 yielded an IC50 of 68.3 nM.

Each binder was assayed against T1, COVID S1 RBD Fc fusion (Antigen 1) (SARS-CoV-2, UniProt P0DTC2 319-541) (assay: phage ELISA).
T1 construct: domain: RBD
In the case of B5, the “ELISA fold over background” value is reported as 3.6 fold over background.
With B6 the “ELISA fold over background” value was 11 fold over background.
B7 was tested, and the “ELISA fold over background” value was 20.1 fold over background.
In the case of B8, the “ELISA fold over background” value is reported as 20.8 fold over background.

The binders below were run against T2, S1-Fc (SARS-CoV-2, UniProt P0DTC2 16-685) (assay: phage ELISA).
In the case of B5, the “ELISA fold over background” value is reported as 1.6 fold over background.
With B6 the “ELISA fold over background” value was 1.1 fold over background.
For B7, the “ELISA fold over background” value was 1.6 fold over background.
For B8, the “ELISA fold over background” value was 1.4 fold over background.

The binders below were run against T3, COVID S1 RBM Fc fusion (Antigen 2) (SARS-CoV-2, UniProt P0DTC2 437-508) (assay: phage ELISA).
T3 construct: domain: RBM
B5 was tested, and the “ELISA fold over background” value was 1.6 fold over background.
With B6 the “ELISA fold over background” value was 1.3 fold over background.
B7 was tested, and the “ELISA fold over background” value was 1.3 fold over background.
For B8, the “ELISA fold over background” value was 1 fold over background.

Target: T1, COVID S1 RBD Fc fusion (Antigen 1)
Assay: phage ELISA
Remark: another data set of the same source
For B5, the “ELISA fold over background” value was 3.6 fold over background.
B6 was tested, and the “ELISA fold over background” value was 11 fold over background.
With B7 the “ELISA fold over background” value was 20.1 fold over background.
With B8 the “ELISA fold over background” value was 20.8 fold over background.

Target: T2, S1-Fc
Assay: phage ELISA
Remark: another data set of the same source
With B5 the “ELISA fold over background” value was 1.6 fold over background.
In the case of B6, the “ELISA fold over background” value is reported as 1.1 fold over background.
In the case of B7, the “ELISA fold over background” value is reported as 1.6 fold over background.
B8 was tested, and the “ELISA fold over background” value was 1.4 fold over background.

Target: T3, COVID S1 RBM Fc fusion (Antigen 2)
Assay: phage ELISA
Remark: another data set of the same source
In the case of B5, the “ELISA fold over background” value is reported as 1.6 fold over background.
For B6, the “ELISA fold over background” value was 1.3 fold over background.
B7 was tested, and the “ELISA fold over background” value was 1.3 fold over background.
With B8 the “ELISA fold over background” value was 1 fold over background.

These binders were tested against T4, SARS-CoV-2 S1 (antigen of the Carterra SPR kinetics) (SARS-CoV-2, UniProt P0DTC2 16-685) (assay: Carterra SPR).
Work on B5 yielded a koff of 0.159 s⁻¹ and a kon of 506000 M⁻¹ s⁻¹.
For B6, the kon was 1.94e+08 M⁻¹ s⁻¹.
With B7 the kon was 3.92e+08 M⁻¹ s⁻¹.
In the case of B8, the kon is reported as 9.1e+08 M⁻¹ s⁻¹.

Target: T4, SARS-CoV-2 S1 (antigen of the Carterra …)
Assay: Carterra SPR
Remark: another data set of the same source
With B5 the Kd was 315 nM, the koff was 0.159 s⁻¹ and the kon was 506000 M⁻¹ s⁻¹.
In the case of B6, the Kd is reported as 75.5 nM and the kon is reported as 1.94e+08 M⁻¹ s⁻¹.
Work on B7 yielded a Kd of 67.1 nM and a kon of 3.92e+08 M⁻¹ s⁻¹.
For B8, the Kd was 113 nM and the kon was 9.1e+08 M⁻¹ s⁻¹.

The binders below were run against T5, SARS-CoV-2 Spike Glycoprotein S1 (subunit 1) (SARS-CoV-2, UniProt P0DTC2 16-685) (assay: ELISA binding titration).
T5 construct: also called S1 Monomer; SARS-CoV-2 S1
B9 was tested, and the EC50 was 2.15 nM.
Binder B10 has an EC50 of 7.92 nM.
For B11, the EC50 was 0.523 nM.
Work on B12 yielded an EC50 of 2.56 nM.
Binder B13 has an EC50 of 0.203 nM.
B14 was tested, and the EC50 was 2.28 nM.

These binders were tested against T5, SARS-CoV-2 Spike Glycoprotein S1 … (assay: screening phage ELISA, mean).
With B15 the “ELISA (Avg)” value was 27.4.
B16 was tested, and the “ELISA (Avg)” value was 23.8.
B9 was tested, and the “ELISA (Avg)” value was 25.7.
With B11 the “ELISA (Avg)” value was 24.2.
For B12, the “ELISA (Avg)” value was 20.6.
For B13, the “ELISA (Avg)” value was 20.7.
For B14, the “ELISA (Avg)” value was 17.7.

Target: T5, SARS-CoV-2 Spike Glycoprotein S1 …
Assay: screening phage ELISA, mean
Remark: another data set of the same source
B15 was tested, and the “ELISA (Avg)” value was 27.4.
With B16 the “ELISA (Avg)” value was 23.8.
In the case of B9, the “ELISA (Avg)” value is reported as 25.7.
With B11 the “ELISA (Avg)” value was 24.2.
With B12 the “ELISA (Avg)” value was 20.6.
For B13, the “ELISA (Avg)” value was 20.7.
With B14 the “ELISA (Avg)” value was 17.7.

What follows are binders tested against T5, SARS-CoV-2 Spike Glycoprotein S1 … (assay: column DC/S1 (format not explained)).
In the case of B15, the Kd is reported as 6650 nM.
For B12, the Kd was 659 nM.
For B13, the Kd was 14.4 nM.
Binder B14 has a Kd of 520 nM.

The binders below were run against T5, SARS-CoV-2 Spike Glycoprotein S1 … (assay: column Fc/S1 (format not explained)).
In the case of B9, the Kd is reported as 6.1 nM.
Work on B12 yielded a Kd of 25.5 nM.
B13 gave a Kd of 17.5 nM.
Work on B14 yielded a Kd of 3240 nM.

What follows are binders tested against T6, SARS-CoV-2 S protein trimer (SARS-CoV-2, UniProt P0DTC2 16-1213) (assay: column DB/S-T (format not explained)).
In the case of B16, the Kd is reported as 36.1 nM.
For B11, the Kd was 304 nM.

These binders were tested against T6, SARS-CoV-2 S protein trimer (assay: column Fc/S-T (format not explained)).
B15 was tested, and the Kd was 10 nM.
For B16, the Kd was 19.3 nM.
In the case of B9, the Kd is reported as 14 nM.

These binders were tested against T5, SARS-CoV-2 Spike Glycoprotein S1 … (assay: column Inhibitor IC50 (assay not explained)).
B9 showed an IC50 of 33 nM.
B13 showed an IC50 of 9.2 nM.

What follows are binders tested against T5, SARS-CoV-2 Spike Glycoprotein S1 … (assay: antibody kinetics, sensorgrams with fits; column S1).
Binder B9 has a Kd of 6.1 nM.
Work on B10 yielded a Kd of 364 nM.
